Results as given in US20240109967A1 (University of Pennsylvania, published 2024).
Numbering of substitutions follows the chain as printed. Read-outs that look alike come from different tables or passages of the source. Values belong to the binder of their own block, whether it stands above or below them.

Legend:
[1] = target: T1, recombinant canine CTLA-4 extracellular domain protein (canine, UniProt Q9XSI1 36-161, biotin on the Avi tag (BirA ligase) in the ELISA, panning and interaction assays); assay: scFv expression extract ELISA on cCTLA-4 (data not shown)
T1 construct: Cloned into pFUSE containing an HA tag, made in 293T cells; The SPR analyte is called soluble cCTLA-4 ECD, and biotinylation is not mentioned there; also called cCTLA-4; cCTLA-4 ECD
T1 chain: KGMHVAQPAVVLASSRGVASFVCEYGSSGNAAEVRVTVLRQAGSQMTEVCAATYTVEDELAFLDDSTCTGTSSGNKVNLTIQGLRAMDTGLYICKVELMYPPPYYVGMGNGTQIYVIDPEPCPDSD

[2] = target: T1, recombinant canine CTLA-4 extracellular …; assay: ELISA; the axis is the amount of coated cCTLA-4, scFv fixed at 0.25 ug/ml
[3] = target: T1, recombinant canine CTLA-4 extracellular …; assay: SPR, mAb captured on the chip, cCTLA-4 ECD as analyte
[4] = target: T1, recombinant canine CTLA-4 extracellular …; assay: ELISA; the axis is the amount of coated CTLA4, not the mAb concentration
[5] = target: T1, recombinant canine CTLA-4 extracellular …; assay: SPR, full-length canine mAb and cCTLA-4
[6] = target: T1, recombinant canine CTLA-4 extracellular …; assay: ELISA; the axis is the amount of CTLA4 per well, not the mAb concentration
[7] = target: T2, human complement C1q (in normal human complement serum) (human, UniProt P02745 23-245; P02746 28-253; P02747 29-245); assay: complement fixation ELISA: antibody titrated on captured cCTLA-4, C1q of human serum detected
T2 construct: also called human serum complement
T2 sequence (P02745 23-245 limits assumed, chain 1 of 3): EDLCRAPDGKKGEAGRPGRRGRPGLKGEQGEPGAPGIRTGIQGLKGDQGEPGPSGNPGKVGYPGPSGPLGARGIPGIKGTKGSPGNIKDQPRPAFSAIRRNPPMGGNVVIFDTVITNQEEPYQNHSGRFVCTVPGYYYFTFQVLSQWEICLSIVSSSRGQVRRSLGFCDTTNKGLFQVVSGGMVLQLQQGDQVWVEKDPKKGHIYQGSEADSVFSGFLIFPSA
T2 sequence (P02746 28-253 limits assumed, chain 2 of 3): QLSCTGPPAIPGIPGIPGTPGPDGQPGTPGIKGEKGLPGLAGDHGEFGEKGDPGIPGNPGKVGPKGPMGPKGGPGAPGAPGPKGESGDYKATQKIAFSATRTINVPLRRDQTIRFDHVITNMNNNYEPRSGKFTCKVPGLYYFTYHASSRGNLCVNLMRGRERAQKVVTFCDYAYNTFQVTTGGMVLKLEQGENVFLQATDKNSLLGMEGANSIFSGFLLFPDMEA
T2 sequence (P02747 29-245 limits assumed, chain 3 of 3): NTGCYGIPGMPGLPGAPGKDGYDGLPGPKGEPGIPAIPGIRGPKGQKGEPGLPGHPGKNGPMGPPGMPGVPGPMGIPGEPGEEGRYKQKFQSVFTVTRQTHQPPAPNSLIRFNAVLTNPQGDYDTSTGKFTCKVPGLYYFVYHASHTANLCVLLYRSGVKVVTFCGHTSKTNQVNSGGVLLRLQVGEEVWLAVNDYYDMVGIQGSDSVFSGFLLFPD

[8] = target: T2, human complement C1q (in normal human …); assay: complement fixation ELISA: antibody on captured cCTLA-4, human serum complement, anti-human C1q HRP
[9] = target: T1, recombinant canine CTLA-4 extracellular …; assay: SPR, mAb captured on the chip, cCTLA-4 ECD as analyte

EC50 (read off the curve) [7]: ~0.5 ug/ml antibody
B5: A1mut2 full-length canine IgG3 (IgGC) mAb, HA-tagged (antibody)
heavy: EVQLVETGGDLVKPGGSLRLSCVASGFSFSSYAMNWVRQAPEKGLQLVGGINSGGSSTYYTDAVKGRFTISRDNAKNTVYLQMNSLRAEDTAVYYCAISNWAYWGQGTLVTVSSASTTAPSVFPLAPSCGSQSGSTVALACLVSGYIPEPVTVSWNSGSLTSGVHTFPSILQSSGLYSLSSMVTVPSSRWPSETFTCNVAHPATNTKVDKPVVKECECKCNCNNCPCPGCGLLGGPSVFIFPPKPKDILVTARTPTVTCVVVDLDPENPEVQISWFVDSKQVQTANTQPREEQSNGTYRVVSVLPIGHQDWLSGKQFKCKVNNKALPSPIEEIISKTPGQAHQPNVYVLPPSRDEMSKNTVTLTCLVKDFFPPEIDVEWQSNGQQEPESKYRMTPPQLDEDGSYFLYSKLSVDKSRWQRGDTFICAVMHEALHNHYTQKSLSHSPGKGGGSGGGSYPYDVPDYA
light: QAVLNQPASVSGSLGQRVTISCTGSSSDIGKSYVAWYQQLPGTGPRTLINVDGNRASGVPDRFSVSRSGNTATLTISGLQAEDEADYHCSSWDWSLHTYVFGSGTQLTILGQPKASPSVTLFPPSSEELGANKATLVCLISDFYPSGVTVAWKADGSPITQGVETTKPSKQSNNKYAASSYLSLTPDKWKSHSSFSCLVTHEGSTVEKKVAPAECS
notes: also called A1mut2 IgGC

EC50 (read off the curve) [7]: ~0.6 ug/ml antibody
B6: A1mut2 full-length canine IgG2 (IgGB) mAb, HA-tagged (antibody)
heavy: EVQLVETGGDLVKPGGSLRLSCVASGFSFSSYAMNWVRQAPEKGLQLVGGINSGGSSTYYTDAVKGRFTISRDNAKNTVYLQMNSLRAEDTAVYYCAISNWAYWGQGTLVTVSSASTTAPSVFPLAPSCGSTSGSTVALACLVSGYFPEPVTVSWNSGSLTSGVHTFPSVLQSSGLYSLSSMVTVPSSRWPSETFTCNVAHPASKTKVDKPVPKRENGRVPRPPDCPKCPAPEMLGGPSVFIFPPKPKDTLLIARTPEVTCVVVDLDPEDPEVQISWFVDGKQMQTAKTQPREEQFNGTYRVVSVLPIGHQDWLKGKQFTCKVNNKALPSPIERTISKARGQAHQPSVYVLPPSREELSKNTVSLTCLIKDFFPPDIDVEWQSNGQQEPESKYRTTPPQLDEDGSYFLYSKLSVDKSRWQRGDTFICAVMHEALHNHYTQESLSHSPGKGGGSGGGSYPYDVPDYA
light: B5 light
notes: also called A1mut2 IgGB

binding result [8]: no binding (tested: 10 ug/ml antibody)
B7: A1mut2 full-length canine IgG1 (IgGA) mAb (antibody)
heavy: EVQLVETGGDLVKPGGSLRLSCVASGFSFSSYAMNWVRQAPEKGLQLVGGINSGGSSTYYTDAVKGRFTISRDNAKNTVYLQMNSLRAEDTAVYYCAISNWAYWGQGTLVTVSSASTTAPSVFPLAPSCGSTSGSTVALACLVSGYFPEPVTVSWNSGSLTSGVHTFPSVLQSSGLYSLSSMVTVPSSRWPSETFTCNVVHPASNTKVDKPVFNECRCTDTPPCPVPEPLGGPSVLIFPPKPKDILRITRTPEVTCVVLDLGREDPEVQISWFVDGKEVHTAKTQSREQQFNGTYRVVSVLPIEHQDWLTGKEFKCRVNHIDLPSPIERTISKARGRAHKPSVYVLPPSPKELSSSDTVSVTCLIKDFYPPDIDVEWQSNGQQEPERKHRMTPPQLDEDGSYFLYSKLSVDKSRWQQGDPFTCAVMHETLQNHYTDLSLSHSPGKGGGSGGGSYPYDVPDYA
light: B5 light
notes: The HA tag is said to be appended to the carboxyl termini of the full-length IgGs and is placed here on the heavy chain; also called A1mut2 mAb; A1mut2 antibody

EC50 (read off the curve) [6]: ~0.7 pmol/well CTLA4
B9: clone A1 full-length canine IgG1 (IgGA) mAb (antibody, V domains shown)
VH: EVQLVESGGDLVKPAGSLRLSCVASGFSFSSYAMNWVRQAPGKGLQWIAGINSGGSSTSHIDAIKGRFTISRDNAKNTLYLQMNSLRAEDTAVYYCAISNWAYWGQGTLVTVSS
VL: QAVLNQPASVSGSLGQRVTISCTGSSSDIGKSYVAWYQQLPGTGPRTLINVDGNRASGVPDRFSVSRSGNTATLTISGLQAEDEADYHCSSWDWSLHTYVFGSGTQLTILG
notes: Produced only at low levels; also called A1 mAb

Further lines, the binder ahead of its results:

B1: A1 scFv (soluble, His and HA tagged) (scFv)
scFv: QAVLNQPASVSGSLGQRVTISCTGSSSDIGKSYVAWYQQLPGTGPRTLINVDGNRASGVPDRFSVSRSGNTATLTISGLQAEDEADYHCSSWDWSLHTYVFGSGTQLTILGGGSSRSSSSGGGGSGGGGEVQLVESGGDLVKPAGSLRLSCVASGFSFSSYAMNWVRQAPGKGLQWIAGINSGGSSTSHIDAIKGRFTISRDNAKNTLYLQMNSLRAEDTAVYYCAISNWAYWGQGTLVTVSSESPSPPNLTSGQAGQHHHHHHGAYPYDVPDYAS
notes: Canine scFv from panning round 3; also called clone A1
fold increase in binding over background [1]: > 20 fold
EC50 (read off the curve) [2]: ~0.3 pmol biotinylated cCTLA4

B2: D5 scFv (soluble, His and HA tagged) (scFv)
scFv: QPVLTQPPSVSAALGQRVTISCTGTATNVGGGYDVQWYQQFPGRPPKTIIYGNYNRPSGVPDRFSASTSGTTATLTISGLQAEDEANYYCSSWDNSLTAYVFGSGTQLTILGGGSSRSSSSGGGGSGGGGEVQLVETGGDLMKPGGSLRLSCVASGFTFSSYSMSWVRQAPEKGLQLVAGINSGGSSTYYTDAVKGRFTISRDNAKNTLYLQMNSLRDEDTAVYYCVISNWSYWGQGTLVTVSSESPSPPNLTSGQAGQHHHHHHGAYPYDVPDYAS
notes: Canine scFv from panning round 4; also called clone D5
fold increase in binding over background [1]: > 20 fold
EC50 (read off the curve) [2]: ~0.4 pmol biotinylated cCTLA4

B3: D5 full-length canine IgG1 (IgGA) mAb (antibody)
heavy: B7 heavy with V12M, S28T, A33S, N35S, G49A, V79L, A88D, A97V, A102S
light: QPVLTQPPSVSAALGQRVTISCTGTATNVGGGYDVQWYQQFPGRPPKTIIYGNYNRPSGVPDRFSASTSGTTATLTISGLQAEDEANYYCSSWDNSLTAYVFGSGTQLTILGQPKASPSVTLFPPSSEELGANKATLVCLISDFYPSGVTVAWKADGSPITQGVETTKPSKQSNNKYAASSYLSLTPDKWKSHSSFSCLVTHEGSTVEKKVAPAECS
notes: The HA tag is placed on the heavy chain; also called D5 mAb; D5 antibody
Kd [3]: 1.5 nM
koff [3]: 0.00018 s⁻¹
kon [3]: 120000 M⁻¹ s⁻¹
t1/2 [3]: 64 min
EC50 (read off the curve) [4]: ~0.2 pmol biotinylated CTLA4/well
Kd [5]: 1.5 nM
kon [5]: 120000 M⁻¹ s⁻¹
t1/2 [5]: 64 min
EC50 (read off the curve) [6]: ~0.7 pmol/well CTLA4

B4: B10 scFv (soluble, His and HA tagged) (scFv)
scFv: QAVLNQPASVSAALGQRVTISCNTNIGSPYDVQWYQQLPGKSPKTIIYGNSNRPSGVPVRFSGSKSGSTATLTIAGIQAEDEADYYCQSYDDNVDGYVFGSGTQLTVLGGGSSRSSSSGGGGSGGGGEVQLVETGGDLVKPGGSLRLSCVASGFTFSDYPMNWVRQAPEKGLQLVGGINSGGSATYYTDAVKGRFTISRDNAKNTVYLQMNSLRAEDTAMYYCATSNFQYWGQGTLVTVSSESPSPPNLTSGQAGQHHHHHHGAYPYDVPDYAS
notes: Canine scFv from panning round 3; also called clone B10
fold increase in binding over background [1]: > 20 fold
EC50 (read off the curve) [2]: ~0.6 pmol biotinylated cCTLA4

B8: B10 full-length canine IgG1 (IgGA) mAb (antibody)
heavy: B7 heavy with S28T, S31D, A33P, S57A, V93M, I98T, W101F, A102Q
light: QAVLNQPASVSAALGQRVTISCNTNIGSPYDVQWYQQLPGKSPKTIIYGNSNRPSGVPVRFSGSKSGSTATLTIAGIQAEDEADYYCQSYDDNVDGYVFGSGTQLTVLGQPKASPSVTLFPPSSEELGANKATLVCLISDFYPSGVTVAWKADGSPITQGVETTKPSKQSNNKYAASSYLSLTPDKWKSHSSFSCLVTHEGSTVEKKVAPAECS
notes: The HA tag is placed on the heavy chain; also called B10 mAb; B10 antibody
EC50 (read off the curve) [4]: ~0.2 pmol biotinylated CTLA4/well
Kd [5]: 1.5 nM
kon [5]: 160000 M⁻¹ s⁻¹
t1/2 [5]: 46 min
Kd [9]: 1.5 nM
koff [9]: 0.00025 s⁻¹
kon [9]: 160000 M⁻¹ s⁻¹
t1/2 [9]: 46 min
EC50 (read off the curve) [6]: ~0.9 pmol/well CTLA4
